# According to patent US20240043542A1 (published 2024):
# Where two headings read alike, the source gives them in different places.
# T1: mouse B7-H4 on the cell surface (mouse, UniProt Q7TSP5 25-257)
# T1 construct: full-length, on transfected HEK293T cells
# T1 sequence: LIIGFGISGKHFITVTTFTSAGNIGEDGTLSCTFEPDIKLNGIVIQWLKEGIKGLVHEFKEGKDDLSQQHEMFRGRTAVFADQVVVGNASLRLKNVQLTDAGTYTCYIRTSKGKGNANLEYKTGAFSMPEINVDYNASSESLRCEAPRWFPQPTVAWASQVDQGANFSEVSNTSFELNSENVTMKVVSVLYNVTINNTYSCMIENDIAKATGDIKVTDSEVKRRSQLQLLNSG
# T2: rat B7-H4 on the cell surface (rat, UniProt Q501W4 25-257)
# T2 construct: full-length, on transfected HEK293T cells
# T2 sequence: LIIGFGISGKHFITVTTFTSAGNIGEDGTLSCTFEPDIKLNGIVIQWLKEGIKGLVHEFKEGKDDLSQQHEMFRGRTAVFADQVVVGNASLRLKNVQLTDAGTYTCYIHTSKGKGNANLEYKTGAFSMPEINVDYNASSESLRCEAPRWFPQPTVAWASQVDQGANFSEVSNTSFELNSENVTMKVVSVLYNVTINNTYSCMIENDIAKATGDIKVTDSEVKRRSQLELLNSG
# T3: cynomolgus monkey B7-H4 on the cell surface (cynomolgus monkey, UniProt Q7Z7D3 25-282 (human entry))
# T3 construct: full-length, on transfected HEK293T cells
# T3 chain: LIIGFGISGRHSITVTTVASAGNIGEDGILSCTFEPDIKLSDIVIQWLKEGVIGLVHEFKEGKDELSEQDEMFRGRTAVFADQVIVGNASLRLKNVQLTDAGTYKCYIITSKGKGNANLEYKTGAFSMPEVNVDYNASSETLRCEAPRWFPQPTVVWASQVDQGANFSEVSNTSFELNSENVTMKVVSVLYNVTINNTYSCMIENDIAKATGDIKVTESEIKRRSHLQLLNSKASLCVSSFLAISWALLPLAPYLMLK
# T4: human B7-H4 on the cell surface (human, UniProt Q7Z7D3 25-282)
# T4 construct: full-length human B7-H4 on transfected HEK293T cells or endogenous on SK-BR-3 cells; also called SK-BR-3 (endogenous human B7-H4)
# T4 sequence: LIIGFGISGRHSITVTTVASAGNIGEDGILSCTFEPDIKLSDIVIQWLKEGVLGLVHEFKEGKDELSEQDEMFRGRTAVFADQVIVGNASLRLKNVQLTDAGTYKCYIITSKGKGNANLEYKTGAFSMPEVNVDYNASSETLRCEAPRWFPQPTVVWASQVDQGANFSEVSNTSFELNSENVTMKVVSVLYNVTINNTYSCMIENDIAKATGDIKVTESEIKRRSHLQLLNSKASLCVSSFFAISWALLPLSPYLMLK
# T5: cynomolgus monkey B7-H4 (recombinant, BLI) (cynomolgus monkey, UniProt Q7Z7D3 25-259 (human entry))
# T5 construct: also called Cynomolgus B7-H4
# T5 sequence: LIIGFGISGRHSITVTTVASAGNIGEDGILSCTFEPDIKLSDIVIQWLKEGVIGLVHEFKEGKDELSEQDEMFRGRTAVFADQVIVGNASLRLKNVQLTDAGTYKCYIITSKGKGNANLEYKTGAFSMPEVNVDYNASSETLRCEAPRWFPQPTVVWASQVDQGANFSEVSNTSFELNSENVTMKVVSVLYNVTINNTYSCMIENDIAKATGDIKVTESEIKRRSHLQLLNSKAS
# T6: mouse B7-H4 (recombinant, BLI) (mouse, UniProt Q7TSP5 29-256, limits assumed)
# T6 construct: also called murine B7-H4
# T6 sequence: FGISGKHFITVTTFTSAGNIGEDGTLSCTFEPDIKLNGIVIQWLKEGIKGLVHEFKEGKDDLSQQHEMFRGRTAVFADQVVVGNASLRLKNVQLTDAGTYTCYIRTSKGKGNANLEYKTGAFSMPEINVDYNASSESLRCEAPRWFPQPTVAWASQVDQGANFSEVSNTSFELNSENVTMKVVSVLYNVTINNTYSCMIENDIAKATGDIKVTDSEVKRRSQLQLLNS
# Legend:
# [1] = biological target: T1, mouse B7-H4 on the cell surface; test: flow cytometry, transfected 293 cells
# Method: (§1) Following incubation, cells were pelleted, washed and incubated with a secondary labeling antibody and samples were acquired on a flow cytometer. Data was analyzed using the FlowJo software and MFI was plotted vs. antibody concentration. The EC50 cell binding potency was calculated using nonlinear regression curve fit (GraphPad Prism).
# [2] = biological target: T2, rat B7-H4 on the cell surface; test: flow cytometry, transfected 293 cells
# Method: as §1
# [3] = biological target: T3, cynomolgus monkey B7-H4 on the cell …; test: flow cytometry, transfected 293 cells
# Method: as §1
# [4] = biological target: T4, human B7-H4 on the cell surface; test: flow cytometry, SK-BR-3 cells
# Method: as §1
# [5] = biological target: T5, cynomolgus monkey B7-H4 (recombinant, …); test: BLI, antigen on Protein A tips;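 further: Anti-B7-H4 antibodies assessed for affinity toward the B7-H4 extracellular domain using biolayer interferometry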
# Method: (§2) Binding affinities of anti-B7-H4 antibodies to B7-H4-extracellular domain (ECD) were determined by biolayer interferometry (BLI). […] Anti-B7-H4 antibodies were then evaluated for binding.
# [6] = biological target: T6, mouse B7-H4 (recombinant, BLI); test: BLI, antigen on Protein A tips;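 further: Anti-B7-H4 antibodies assessed for affinity toward the B7-H4 extracellular domain using biolayer interferometry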
# Method: as §2
# [7] = biological target: T7, recombinant human B7-H4-huIgG1 (human); test: BLI, antigen on Protein A tips;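 further: Anti-B7-H4 antibodies assessed for affinity toward the B7-H4 extracellular domain using biolayer interferometry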
# T7 construct: also called B7-H4-extracellular domain (ECD)
# Method: as §2
# [8] = biological target: T4, human B7-H4 on the cell surface; test: cell-based or functional assay
# [9] = biological target: T1, mouse B7-H4 on the cell surface; test: flow cytometry, 100 nM, transfected HEK293T
# Method: (§3) HEK293T cell lines were transfected to express full-length human, cynomolgus monkey, mouse, or rat B7-H4. In addition, the endogenous human B7-H4 expressing SK-BR-3 breast cancer cell line was used to assess the ability of the antibodies to bind B7-H4 expressed on the cell surface. 1×10⁵ parental HEK293T or transfected HEK293T cell lines were incubated with 100 nM of the B7-H4 antibodies. Following incubation, cells were pelleted, washed, and incubated with a secondary labeling antibody, and samples were acquired on a flow cytometer. Fold binding over the parental cell line (FOP) was calculated as follows: MFI transfected HKE293T cells/MFI parental HEK293T cells.
# [10] = biological target: T4, human B7-H4 on the cell surface; test: flow cytometry, 100 nM, transfected HEK293T
# Method: as §3
# [11] = biological target: T3, cynomolgus monkey B7-H4 on the cell …; test: flow cytometry, 100 nM, transfected HEK293T
# Method: as §3
# [12] = biological target: T4, human B7-H4 on the cell surface; test: cell-based or functional assay; remark: listed apart in the source
# B7-H4 IgV-huIgG1 = biological target: T8, B7-H4 IgV-huIgG1 (human); test: SPR, antibody captured by anti-human Fab, antigen in flow
# T8 construct: also called N-terminal domain of human B7-H4
# Method: Briefly, anti-human Fab antibody was immobilized on a carboxyl-derivatized SPR chip surface, and anti-B7-H4 antibodies were captured on the resulting surface at 5 ug/ml for 30 seconds.
# [13] = biological target: T1, mouse B7-H4 on the cell surface; test: flow cytometry, transfected HEK293T
EC50 [1] [nM],EC50 [2] [nM],EC50 [3] [nM],EC50 [4] [nM],Kd [5] [nM],koff [5] [s⁻¹],kon [5] [M⁻¹ s⁻¹],Kd [6] [nM],koff [6] [s⁻¹],kon [6] [M⁻¹ s⁻¹],Kd [7] [nM],koff [7] [s⁻¹],kon [7] [M⁻¹ s⁻¹],Donor 1 Max IFNγ [8] [pg/mL],Donor 2 Max IFNγ [8] [pg/mL],Donor 3 Max IFNγ [8] [pg/mL],Donor 4 Max IFNγ [8] [pg/mL],FOP (fold binding over the parental cell line) [9] [fold],FOP (fold binding over the parental cell line) [10] [fold],FOP (fold binding over the parental cell line) [11] [fold],Binder,other results
4,1.14,3.38,1.54,5.47,0.00229,418000,8.25,0.00336,408000,5.97,0.00233,391000,821,274,118,4030,478,182,630,"B7-H4 antibody 20500 (antibody, human IgG1, kappa, V domains shown, human IgG1/kappa) VH: QLQLQESGPGLVKPSETLSLTCTVSGGSIKSGSHYWGWIRQPPGKGLEWIGNIYYSGSTYYNPSLRSRVTISVDTSKNQFSLKLSSVTAADTAVYYCAREGSYPNWFDPWGQGTLVTVSS VL: EIVMTQSPATLSVSPGERATLSCRASQSVSSNLAWYQQKPGQAPRLLIYGASTRATGIPARFSGSGSGTEFTLTISSLQSEDFAVYYCQQYHSFPFTFGGGTKVEIKR",aAPC Assay EC50 (IFNγ production) [8]: 0.84 nM
6.37,1.67,6.77,5.66,62.1,0.027,434000,55.7,0.017,305000,62.9,0.024,381000,,,,,887,333,610,"B7-H4 antibody 15461 (antibody, human IgG1, kappa, V domains shown, human IgG1/kappa) VH: QLQLQESGPGLVKPSETLSLTCTVSGGSISSSSYYWGWIRQPPGKGLEWIGNIYYSGSTYYNPSLKSRVTISVDTSKNQFSLKLSSVTAADTAVYYCAREGSYPNWFDPWGQGTLVTVSS VL: EIVMTQSPATLSVSPGERATLSCRASQSVSSNLAWYQQKPGQAPRLLIYGASTRATGIPARFSGSGSGTEFTLTISSLQSEDFAVYYCQQYHSFPFTFGGGTKVEIKR",Donor 1 Max IFNγ [12]: 312 pg/mL; Donor 2 Max IFNγ [12]: 165 pg/mL; Donor 3 Max IFNγ [12]: 1960 pg/mL; Donor 4 Max IFNγ [12]: 987 pg/mL; aAPC Assay EC50 (IFNγ production) [12]: 531 nM; Kd (B7-H4 IgV-huIgG1): 30.4 nM; koff (B7-H4 IgV-huIgG1): 0.00519 s⁻¹; kon (B7-H4 IgV-huIgG1): 171000 M⁻¹ s⁻¹
4.67,1.15,3.89,1.9,2.42,0.00246,1.02e+06,3.35,0.00375,1.12e+06,2.56,0.00251,980000,850,310,136,4490,546,205,728,"B7-H4 antibody 20501 (antibody, human IgG1, kappa, V domains shown, human IgG1/kappa) VH: QLQLQESGPGLVKPSETLSLTCTVSGGSIKSGSHYWGWIRQPPGKGLEWIGNIYYSGSTYYNPSLKSRVTISVDTSKNQFSLKLSSVTAADTAVYYCAREGSYPNWLDPWGQGTLVTVSS VL: EIVMTQSPATLSVSPGERATLSCRASQSVSSNLAWYQQKPGQAPRLLIYGASTRATGIPARFSGSGSGTEFTLTISSLQSEDFAVYYCQQYHSFPFTFGGGTKVEIKR",aAPC Assay EC50 (IFNγ production) [8]: 0.79 nM
5.57,1.26,4.94,2.5,2.64,0.00139,528000,3.99,0.00207,520000,3.07,0.0015,487000,937,304,174,4270,559,200,683,"B7-H4 antibody 20502.1 (antibody, human IgG1, kappa, V domains shown, human IgG1/kappa) VH: QLQLQESGPGLVKPSETLSLTCTVSGGSIKSGSYYWGWIRQPPGKGLEWIGNIYYSGSTYYNPSLKSRVTISVDTSKNQFSLKLSSVTAADTAVYYCAREGSYPNQFDPWGQGILVTVSS VL: EIVMTQSPATLSVSPGERATLSCRASQSVSSNLAWYQQKPGQAPRLLIYGASTRATGIPARFSGSGSGTEFTLTISSLQSEDFAVYYCQQYHSFPFTFGGGTKVEIKR",aAPC Assay EC50 (IFNγ production) [8]: 0.79 nM
5.34,1.47,4.9,2.13,51.1,0.0278,544000,89.6,0.0265,296000,51.3,0.0248,484000,,,,,690,626,1320,"B7-H4 antibody 15465 (antibody, human IgG1, kappa, V domains shown, human IgG1/kappa) VH: QVQLQESGPGLVKPSQTLSLTCTVSGGSISSGGYYWSWIRQHPGKGLEWIGNIYYSGSTYYNPSLKSRVTISVDTSKNQFSLKLSSVTAADTAVYYCARESSTISADFDLWGRGTLVTVSS VL: DIQMTQSPSSVSASVGDRVTITCRASQGISRWLAWYQQKPGKAPKLLIYAASSLQSGVPSRFSGSGSGTDFTLTISSLQPEDFATYYCQQAHTFPYTFGGGTKVEIKR",Donor 1 Max IFNγ [12]: 230 pg/mL; Donor 2 Max IFNγ [12]: 134 pg/mL; Donor 3 Max IFNγ [12]: 1520 pg/mL; Donor 4 Max IFNγ [12]: 865 pg/mL; aAPC Assay EC50 (IFNγ production) [12]: 4310 nM; Kd (B7-H4 IgV-huIgG1): 17.3 nM; koff (B7-H4 IgV-huIgG1): 0.00417 s⁻¹; kon (B7-H4 IgV-huIgG1): 241000 M⁻¹ s⁻¹
,,,34.3,54.6,0.0727,1.33e+06,,,,7.15,0.00872,1.22e+06,,,,,,67,,"B7-H4 antibody 15441 (antibody, human IgG1, kappa, V domains shown, human IgG1/kappa) VH: not shown VL: DIQMTQSPSTLSASVGDRVTITCRASQSISSWLAWYQQKPGKAPKLLIYDASSLESGVPSRFSGSGSGTEFTLTISSLQPDDFATYYCQQSKSYPRTFGGGTKVEIKR",binding result [13]: no binding (tested: FOP 10; 100 nM antibody); binding result [6]: no binding
